Measurements from patent EP4371564A2.

Target: integrin molecules on human cells
Assay: cell-based or functional assay

B1: RGD-Hoc (SEQ ID NO: 19), P18056 1-376 (protein)
chain: CDCRGDCFCSAMTFTVDITPKTPTGVIDETKQFTATPSGQTGGGTITYAWSVDNVPQDGAEATFSYVLKGPAGQKTIKVVATNTLSEGGPETAEATTTITVKNKTQTTTLAVTPASPAAGVIGTPVQFTAALASQPDGASATYQWYVDDSQVGGETNSTFSYTPTTSGVKRIKCVAQVTATDYDALSVTSNEVSLTVNKKTMNPQVTLTPPSINVQQDASATFTANVTGAPEEAQITYSWKKDSSPVEGSTNVYTVDTSSVGSQTIEVTATVTAADYNPVTVTKTGNVTVTAKVAPEPEGELPYVHPLPHRSSAYIWCGWWVMDEIQKMTEEGKDWKTDDPDSKYYLHRYTLQKMMKDYPEVDVQESRNGYIIHKTALETGIIYTYPKLAAALEHHHHHH
In the case of B1, the luciferase activity is reported as 5 fold.
